Biological target: ADRB2-luc234R233 (β2 adrenergic receptor fused at its C terminus to permuted firefly luciferase with R at the X position of the TEV cleavage site) (firefly) (UniProt P07550)
Assay: cell-based or functional assay

Chain of Human β arrestin 2-TEV fusion (tobacco etch virus protease A fused to the C terminus of β arrestin 2) (P32121 1-409, tags or fused parts left off): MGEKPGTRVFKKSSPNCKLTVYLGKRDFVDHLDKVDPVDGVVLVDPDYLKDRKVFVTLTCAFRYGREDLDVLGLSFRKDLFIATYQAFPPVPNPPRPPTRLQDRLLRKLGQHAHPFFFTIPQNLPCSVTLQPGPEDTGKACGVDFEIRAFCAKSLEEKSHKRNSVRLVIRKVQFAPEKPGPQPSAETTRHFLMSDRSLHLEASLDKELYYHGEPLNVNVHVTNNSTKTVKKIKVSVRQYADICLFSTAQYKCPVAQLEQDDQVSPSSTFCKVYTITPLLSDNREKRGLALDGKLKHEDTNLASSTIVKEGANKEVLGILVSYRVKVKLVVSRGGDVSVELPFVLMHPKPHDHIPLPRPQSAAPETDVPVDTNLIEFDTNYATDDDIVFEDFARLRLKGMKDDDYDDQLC

Human β arrestin 2-TEV fusion (tobacco etch virus protease A fused to the C terminus of β arrestin 2) (from UniProt P32121 1-409; P04517 2040-2279)
> 3 fold: relative luminescence (reconstituted permuted luciferase) in co-transfected CHO-K1 cells, with or without 10 µM isoproterenol, 2 hours | relative luminescence in co-transfected CHO-K1 cells, with or without 10 µM isoproterenol, 2 hours | relative luminescence units in cotransfected CHO-K1 cells, with or without 10 µM ADRB2 agonist, 2 hours

Reference: patent US20140162289A1
